Assay results reported in the supplement of paper PMC9732359.
± gives the uncertainty stated by the source.

Assay: protein stability index of a GFP-peptide fusion (yeast GPS) (PSI 1-4); higher = more stable; sorted into four equal gates, so the index is relative within each strain
In short: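 The protein stability index of a peptide was calculated by multiplying its read frequency in each gate by that gate's number and adding the products. The peptides were tiled 17-residue stretches of yeast proteins, fused downstream of GFP on a Cherry-expressing plasmid and carried in yeast as a pooled library. Mid-log cultures in leucine-free medium were sorted into four equal gates by GFP/Cherry ratio, and each gate's plasmids were PCR-amplified and Illumina-sequenced.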

| Sequence | protein stability index (pdr5∆) | protein stability index (ubr1∆) | protein stability index (san1∆) | protein stability index (doa10∆) |
| --- | --- | --- | --- | --- |
| DNSVEQGRRLGESIMSE [MCD1] | 3.41 ± 0.22 | 3.33 ± 0.12 |  |  |
| EENWDDVEVDDDFTNEL [SEM1] | 3.13 ± 0.22 | 3.3 ± 0.19 | 3.05 ± 0.2 |  |
| LDISVFLLEKAGERKIP [TAF14] | 2.43 ± 0.072 | 2.16 ± 0.061 | 2.44 ± 0.063 | 2.26 ± 0.078 |
| AVSKDPLLTKRKDLRDK [DIS3] | 3.41 ± 0.13 | 3.25 ± 0.14 | 2.78 ± 0.22 | 2.97 ± 0.14 |
| TQLDDLQHELMISIIKL [YML103C/NUP188] | 2.29 ± 0.1 | 2.51 ± 0.093 | 2.19 ± 0.28 |  |
| DSRLSRKQIDETQVLVS [BRR2] | 1.83 ± 0.073 | 2.13 ± 0.041 | 1.82 ± 0.072 | 1.61 ± 0.055 |
| TSSTHERKSKTYVITKN [RET1] | 2.66 ± 0.08 | 2.84 ± 0.076 | 2.3 ± 0.064 | 2.44 ± 0.067 |
| KFQETLLRQKIEQCKHP [ISW2] | 1.47 ± 0.068 | 1.21 ± 0.063 | 1.24 ± 0.13 | 1.34 ± 0.068 |
| LSMRFQRETSGMIVISM [SRB8] | 2.05 ± 0.062 | 1.97 ± 0.058 | 1.54 ± 0.067 | 2.13 ± 0.081 |
| GDMTNSDAQSNLGSNVR [REC8] | 3.52 ± 0.15 | 3.25 ± 0.096 | 2.87 ± 0.17 | 2.92 ± 0.28 |
| KPLGLDRYGNRYFWLDH [ITC1] | 3.02 ± 0.13 | 2.74 ± 0.086 | 2.85 ± 0.056 | 2.77 ± 0.11 |
| SRKRKPKSASNTSSKRQ [IRR1] | 2.7 ± 0.14 | 3.09 ± 0.069 | 2.89 ± 0.085 | 2.86 ± 0.1 |
| SAKAELEKLVDHHPEGL [PRE10] | 2.91 ± 0.055 | 2.75 ± 0.048 | 2.55 ± 0.068 | 2.84 ± 0.065 |
| VTRFDEKQIEELLDNCI [SRB6] |  | 3.33 ± 0.12 | 3.21 ± 0.16 | 2.9 ± 0.21 |
| LGKAQNWAKFTATASLG [RPN2] | 2.56 ± 0.059 | 2.28 ± 0.065 | 2.18 ± 0.069 | 2.55 ± 0.059 |
| ESPVDVQSQVDSSSVSE [FAS1] | 3.3 ± 0.073 | 3.23 ± 0.042 | 3.14 ± 0.051 | 3.11 ± 0.06 |
| DLLKLVHLSNGYKMIPG [FAS1] | 2.46 ± 0.055 | 2.24 ± 0.039 | 2.14 ± 0.064 | 2.3 ± 0.057 |
| SYDKTVKLWEEDPDQEE [YGL100W/SEH1] | 3.21 ± 0.079 | 3.29 ± 0.06 | 3.3 ± 0.044 | 3.32 ± 0.12 |
| SGEDVIIGKTTPISPDE [RPB2] |  | 3.35 ± 0.085 | 3.49 ± 0.083 | 3.26 ± 0.21 |
| CLTKFQDEEQTEHLTEL [YCG1] | 3 ± 0.15 | 2.85 ± 0.11 | 3.46 ± 0.075 | 3.33 ± 0.13 |
| ALTQMDQDKVNFASGDN [RPB3] | 3.5 ± 0.13 | 3.65 ± 0.28 | 3.08 ± 0.15 | 3.33 ± 0.14 |
| TYNEDIPVEILVRRLSD [PRE9] | 2.84 ± 0.077 | 2.85 ± 0.059 | 3.14 ± 0.064 | 3.06 ± 0.079 |
| DRFKPNLDIAKDLIRTD [MED4] | 3.34 ± 0.19 | 2.96 ± 0.14 | 2.82 ± 0.11 | 3.38 ± 0.19 |
| RRERRLIFGTIASKMSL [RPT3] | 2.48 ± 0.068 | 2.45 ± 0.038 | 2.36 ± 0.048 | 2.31 ± 0.051 |
| RAPQQSVLQLFQSVQLN [SMC2] | 1.98 ± 0.044 | 1.91 ± 0.034 | 2.24 ± 0.051 | 2 ± 0.05 |
| AGLGKTNELWARLAILK [YGR119C/NUP57] | 1.67 ± 0.091 | 3.56 ± 0.14 | 2.02 ± 0.2 | 2.38 ± 0.086 |

| Sequence | protein stability index (pdr5∆) | protein stability index (ubr1∆) | protein stability index (san1∆) | protein stability index (doa10∆) |
| --- | --- | --- | --- | --- |
| LLTVTPGPRLLYENIAS [RPN10] | 1.92 ± 0.054 | 1.82 ± 0.035 | 1.95 ± 0.086 | 1.86 ± 0.036 |
| EVSGENVVEADLKRFVD [QCR2] | 3.25 ± 0.13 | 3.66 ± 0.067 | 3.36 ± 0.058 | 3.31 ± 0.19 |
| IDRPKHELSRAELEELE [SMD2] | 3.27 ± 0.15 | 3.38 ± 0.1 | 3.32 ± 0.07 | 3.27 ± 0.083 |
| GGDWERRNRYKTYYGIH [RPN7] | 1.4 ± 0.074 | 1.18 ± 0.044 | 1.29 ± 0.13 | 1.24 ± 0.049 |
| CDLSSKFNKSKAKFTSL [YCS4] | 2.79 ± 0.07 | 2.64 ± 0.037 | 2.98 ± 0.05 | 2.72 ± 0.055 |
| DETKGFDDNDSGNNYND [MED2] | 3.07 ± 0.058 | 3.1 ± 0.048 | 3.13 ± 0.053 | 3.1 ± 0.055 |
| LSLKRTLTDILEDELYH [RPN4] | 3.52 ± 0.11 | 3.15 ± 0.11 | 3.47 ± 0.11 | 3.11 ± 0.1 |
| HIPICVTFSFFNPQDTE [RRP45] | 1.61 ± 0.06 | 1.58 ± 0.046 | 1.28 ± 0.1 | 1.56 ± 0.048 |
| SKLIPEVINKEIENATK [RPS1A] |  | 3.16 ± 0.19 | 2.78 ± 0.23 | 2.86 ± 0.22 |
| SVDKKVDSGEERNEQER [SWI3] | 3.35 ± 0.14 | 3.54 ± 0.077 | 3.25 ± 0.11 | 3.53 ± 0.092 |
| TANATAELNLPTVDEQR [SNF11] | 3.14 ± 0.032 | 3.147 ± 0.026 | 2.99 ± 0.043 | 3.04 ± 0.035 |
| HPSIYTQVFNILLQHKE [POP1] | 2.6 ± 0.074 | 2.39 ± 0.044 | 2.41 ± 0.08 | 2.25 ± 0.083 |
| SLAGFHKVQTKLTRELE [RPS7A] | 1.98 ± 0.06 | 2.04 ± 0.058 | 1.57 ± 0.13 | 2.4 ± 0.065 |
| NKEYTLVHGIFGAKMSR [SIN4] | 2.98 ± 0.13 | 3.09 ± 0.11 | 3.15 ± 0.19 | 2.75 ± 0.12 |
| TSTEKLYKLNDKIAVAV [PRE9] | 2.93 ± 0.081 | 2.95 ± 0.068 | 3.1 ± 0.081 | 2.84 ± 0.072 |
| KPNDLVGVNKDSYLILD [RPT5] | 3.4 ± 0.19 | 3.49 ± 0.14 | 3.35 ± 0.082 | 3.05 ± 0.17 |
| THDGRTIRYPDPNIKVN [RPS4A] |  |  |  | 1.52 ± 0.13 |
| GSPKSATSKTSEMLAKY [CDC53] | 2.48 ± 0.072 | 3 ± 0.045 | 1.83 ± 0.1 | 2.67 ± 0.075 |
| VKQEDMPFNDQGIVPDI [RET1] | 3.06 ± 0.059 | 3.17 ± 0.043 | 2.91 ± 0.064 | 2.86 ± 0.084 |
| VYGEGTSRVTGILLLDS [YJL039C/NUP192] | 3.31 ± 0.091 | 3.44 ± 0.091 |  | 3.19 ± 0.19 |
| APLFKKNSSRPMPPIRG [SMD3] | 2.29 ± 0.064 | 2.5 ± 0.061 | 2.39 ± 0.062 | 2.42 ± 0.059 |
| SAGDDGKVRLWKATYSN [YGL100W/SEH1] | 2.89 ± 0.089 | 3 ± 0.058 | 2.74 ± 0.06 | 2.74 ± 0.061 |
| NNFRESDIIILKGEIED [SIR4] | 2.12 ± 0.091 | 2.93 ± 0.13 | 2.32 ± 0.13 | 3.05 ± 0.18 |
| MNAGGLFGAKPQNTTAT [YGR119C/NUP57] | 3.29 ± 0.059 | 2.72 ± 0.059 | 3.35 ± 0.058 | 2.43 ± 0.049 |
| FLTPMDSIDLAPNTLTN [YML103C/NUP188] | 1.68 ± 0.1 | 1.26 ± 0.082 | 1.98 ± 0.18 | 1.51 ± 0.18 |
